This passage reports Kd and EC50 results from patent publication US20200024360A1 (Janssen / Centocor, published 2020).

B1: PS3B27 (bispecific antibody, human IgG4 S228P, kappa, lambda, F234A L235A)
heavy 1: not shown
light 1: not shown
heavy 2: EVQLVESGGGLVQPGGSLRLSCAASGFTFNTYAMNWVRQAPGKGLEWVARIRSKYNNYATYYAASVKGRFTISRDDSKNSLYLQMNSLKTEDTAVYYCARHGNFGNSYVSWFAYWGQGTLVTVSSASTKGPSVFPLAPCSRSTSESTAALGCLVKDYFPEPVTVSWNSGALTSGVHTFPAVLQSSGLYSLSSVVTVPSSSLGTKTYTCNVDHKPSNTKVDKRVESKYGPPCPPCPAPEAAGGPSVFLFPPKPKDTLMISRTPEVTCVVVDVSQEDPEVQFNWYVDGVEVHNAKTKPREEQFNSTYRVVSVLTVLHQDWLNGKEYKCKVSNKGLPSSIEKTISKAKGQPREPQVYTLPPSQEEMTKNQVSLTCLVKGFYPSDIAVEWESNGQPENNYKTTPPVLDSDGSFLLYSKLTVDKSRWQEGNVFSCSVMHEALHNHYTQKSLSLSLGK
light 2: QTVVTQEPSLTVSPGGTVTLTCRSSTGAVTTSNYANWVQQKPGQAPRGLIGGTNKRAPGTPARFSGSLLGGKAALTLSGVQPEDEAEYYCALWYSNLWVFGGGTKLTVLGQPKAAPSVTLFPPSSEELQANKATLVCLISDFYPGAVTVAWKADSSPVKAGVETTTPSKQSNNKYAASSYLSLTPEQWKSHRSYSCQVTHEGSTVEKTVAPTECS
notes: IgG4 PAA; PSMA arm chains first, then CD3 arm (F405L, R409K); also called PSMB127 x CD3B219; PS2B27
B2: PS3B25 (bispecific antibody, human IgG4 S228P, kappa, lambda, F234A L235A)
heavy 1: not shown
light 1: not shown
heavy 2: B1 heavy 2
light 2: B1 light 2
notes: IgG4 PAA; also called PSMB87 x CD3B219
B3: PS3B30 (bispecific antibody, human IgG4 S228P, kappa, lambda, F234A L235A)
heavy 1: not shown
light 1: not shown
heavy 2: B1 heavy 2
light 2: B1 light 2
notes: IgG4 PAA; PSMA arm chains first, then CD3 arm (F405L, R409K); also called PSMB130 x CD3B219
B4: PS3B28 (bispecific antibody, human IgG4 S228P, kappa, lambda, F234A L235A)
heavy 1: not shown
light 1: not shown
heavy 2: B1 heavy 2
light 2: B1 light 2
notes: IgG4 PAA; PSMA arm chains first, then CD3 arm (F405L, R409K); also called PSMB128 x CD3B219
B5: PS3B22 (bispecific antibody, human IgG4 S228P, kappa, lambda, F234A L235A)
heavy 1: not shown
light 1: DIQMTQSPSSLSASVGDRVTITCRASQSIDRWLNWYQQKPGKAPKLLIYAASSLQSGVPSRFSGSGSGTDFTLTISSLQPEDFATYYCQQSPRYPLTFGQGTKVEIKRTVAAPSVFIFPPSDEQLKSGTASVVCLLNNFYPREAKVQWKVDNALQSGNSQESVTEQDSKDSTYSLSSTLTLSKADYEKHKVYACEVTHQGLSSPVTKSFNRGEC
heavy 2: B1 heavy 2
light 2: B1 light 2
notes: IgG4 PAA; PSMA arm chains first, then CD3 arm (F405L, R409K); also called PSMB122 x CD3B219; PSB22
B6: PS3B20 (bispecific antibody, human IgG4 S228P, kappa, lambda, F234A L235A)
heavy 1: not shown
light 1: not shown
heavy 2: B1 heavy 2
light 2: B1 light 2
notes: IgG4 PAA; PSMA arm chains first, then CD3 arm (F405L, R409K); also called PSMB120 x CD3B219
B7: PS3B24 (bispecific antibody, human IgG4 S228P, kappa, lambda, F234A L235A)
heavy 1: not shown
light 1: not shown
heavy 2: B1 heavy 2
light 2: B1 light 2
notes: IgG4 PAA; PSMA arm chains first, then CD3 arm (F405L, R409K); also called PSMB124 x CD3B219
B8: PS3B19 (bispecific antibody, human IgG4 S228P, kappa, lambda, F234A L235A)
heavy 1: not shown
light 1: not shown
heavy 2: B1 heavy 2
light 2: B1 light 2
notes: IgG4 PAA; PSMA arm chains first, then CD3 arm (F405L, R409K); also called PSMB119 x CD3B219
B9: PS3B23 (bispecific antibody, human IgG4 S228P, kappa, lambda, F234A L235A)
heavy 1: not shown
light 1: not shown
heavy 2: B1 heavy 2
light 2: B1 light 2
notes: IgG4 PAA; PSMA arm chains first, then CD3 arm (F405L, R409K); also called PSMB123 x CD3B219

One assay concerns the target T1, recombinant cynomolgous monkey PSMA extracellular domain (ECD) protein (Macaca fascicularis, UniProt Q04609 48-750 (human entry), biotin on the Avi tag).
T1 construct: also called cyno PSMA ECD; PSMG1
T1 chain: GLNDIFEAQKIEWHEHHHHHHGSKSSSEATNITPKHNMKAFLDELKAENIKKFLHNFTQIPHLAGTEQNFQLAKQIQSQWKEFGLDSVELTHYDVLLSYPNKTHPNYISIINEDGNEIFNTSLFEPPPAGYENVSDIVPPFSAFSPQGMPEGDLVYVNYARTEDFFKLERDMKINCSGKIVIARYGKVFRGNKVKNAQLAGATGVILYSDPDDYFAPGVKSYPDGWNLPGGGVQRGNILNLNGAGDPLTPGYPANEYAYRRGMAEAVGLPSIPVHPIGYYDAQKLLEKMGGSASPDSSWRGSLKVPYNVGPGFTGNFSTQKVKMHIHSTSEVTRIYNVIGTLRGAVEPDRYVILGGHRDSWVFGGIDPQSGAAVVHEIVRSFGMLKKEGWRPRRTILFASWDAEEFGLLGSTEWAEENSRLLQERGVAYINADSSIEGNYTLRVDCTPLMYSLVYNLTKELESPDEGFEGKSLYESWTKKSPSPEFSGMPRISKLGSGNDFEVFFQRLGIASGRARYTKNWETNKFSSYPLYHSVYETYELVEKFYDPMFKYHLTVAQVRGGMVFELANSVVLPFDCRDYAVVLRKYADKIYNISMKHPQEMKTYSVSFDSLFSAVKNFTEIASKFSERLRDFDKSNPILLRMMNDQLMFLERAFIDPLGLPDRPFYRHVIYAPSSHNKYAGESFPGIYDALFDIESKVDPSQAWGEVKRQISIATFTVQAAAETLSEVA
Description: SPR ProteOn.
B1: the Kd (as a rule, a measure of binding affinity in units of concentration) came to 7 nM.
For the molecule B2, the dissociation constant Kd stood at 81.1 nM.

The target in the next assay is T2, recombinant human PSMA extracellular domain (ECD) protein (human, UniProt Q04609 44-750).
T2 construct: also called human PSMA ECD
Nature of the assay: SPR ProteOn.
For the molecule B1, the Kd turned out to be 10.3 nM.
Take B2: the equilibrium dissociation constant (Kd) was 5.38 nM.

Another assay has as its target T3, human PSMA (prostate specific membrane antigen), full length (human, UniProt Q04609 1-750).
T3 construct: On LNCaP or C4-2B cells (endogenous) or transduced HEK293F cells; also called FOLH1_HUMAN; hPSMA
Nature of the assay: FACS, whole cell binding, LNCaP; calculated EC50. How it is done: (§1) PSMA×CD3 bispecific antibodies were tested for binding to PSMA positive cell lines LNCAP, human PSMA-HEK, Chimpanzee-PSMA-HEK and Cynomolgous monkey PSMA-HEK. To assess the binding capabilities of the PSMA bispecific antibodies, the cell-binding assay was utilized (described previously). Briefly, PSMA expressing tumor cells are bound by bispecific antibodies at known concentrations and the bound antibody is detected by an anti-human kappa light chain PE conjugated detection reagent (Invitrogen). The Mean Fluorescents Intensity (MFI) is the measure of bound bispecific antibody. The MFI is converted to a relative EC₅₀. EC₅₀ is a commonly used dose-response curve, where the half maximal effective concentration or the EC₅₀ point is defined as the inflection point of the curve. EC₅₀ s were determined by measuring cell bound bispecific and known concentrations. […] The dose response curves were then diluted down to that of background or no bispecific binding. The inflection point of this curve reflects the EC₅₀ point. The calculated EC₅₀ is determined by taking the ug/ml amount of bispecific antibody at the EC₅₀ point and converting it to a molarity value based on the MW of the bispecific antibody. Bispecific antibodies were normalized for protein concentration and then incubated with the same number of cells expressing either human or cyno PSMA. The MFI at each concentration was collected by flow cytometry and plotted as a function of concentration. Data was transformed via log 10 and then plotted. Nonlinear regression of binding curves was done to determine EC₅₀ s. These relative values were used for ranking PSMA binding to target cells.
In the case of B1, the EC50 (in general, the concentration needed to bring the measured effect to its halfway point) is 14.6 nM.
On the same count and under the same terms, as for B3, the figure is 8.5 nM; as for B4, 8.1 nM; as for B5, 18.3 nM.
With B6, the concentration for a half-maximal effect (EC50) is 864 nM.

For another assay, the target named is T4, chimpanzee PSMA, full length (Pan troglodytes, UniProt Q04609 1-750 (human entry)).
T4 construct: On transfected HEK293F cells; also called chimp PSMA; H2Q3K5_PANTR
T4 chain: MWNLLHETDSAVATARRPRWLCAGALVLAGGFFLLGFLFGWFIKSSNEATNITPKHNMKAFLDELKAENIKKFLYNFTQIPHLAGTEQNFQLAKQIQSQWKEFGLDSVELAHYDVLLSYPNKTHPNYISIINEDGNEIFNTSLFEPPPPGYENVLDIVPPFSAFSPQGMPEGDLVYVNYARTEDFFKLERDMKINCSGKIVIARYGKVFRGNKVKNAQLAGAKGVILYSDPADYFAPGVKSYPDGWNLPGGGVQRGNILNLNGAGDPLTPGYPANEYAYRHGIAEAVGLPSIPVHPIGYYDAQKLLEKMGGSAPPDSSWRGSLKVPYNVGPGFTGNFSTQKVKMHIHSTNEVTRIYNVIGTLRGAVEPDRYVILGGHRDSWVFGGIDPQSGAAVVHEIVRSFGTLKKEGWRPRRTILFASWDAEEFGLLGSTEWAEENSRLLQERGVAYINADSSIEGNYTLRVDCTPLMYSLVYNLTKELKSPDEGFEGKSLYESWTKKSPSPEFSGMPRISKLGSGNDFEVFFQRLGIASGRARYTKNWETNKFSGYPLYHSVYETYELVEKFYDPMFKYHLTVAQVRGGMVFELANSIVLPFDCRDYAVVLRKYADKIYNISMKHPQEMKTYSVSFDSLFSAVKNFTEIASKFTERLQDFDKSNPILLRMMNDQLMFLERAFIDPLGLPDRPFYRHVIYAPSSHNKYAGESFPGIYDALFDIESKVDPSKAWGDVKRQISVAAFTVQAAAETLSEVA
Description: FACS, whole cell binding, chimp PSMA HEK; calculated EC50. As to the method:
as §1
In the case of B1, the EC50 was 22.8 nM.
For the molecule B3, the concentration for a half-maximal effect (EC50) was 23.2 nM.
On the same count and under the same terms, as for B7, the figure is 7.75 nM.
For B8, the concentration giving a half-maximal response (EC50) is 35.9 nM.
Consider B4, for which the 50% effective concentration (EC50) was 7.08 nM.
On the same count and under the same terms, as for B9, the figure is 6.18 nM.
Still for that read-out and setting: for B5 the value was 21.2 nM.
Still for that read-out and setting: as for B6, the figure is 23.4 nM.
